Test [1] addresses CHO host cell proteins (HCPs). Briefly: dynamic binding, CHO cell culture fluid; summary for G.1 and G.2 together.
Test [2] addresses CHO host cell proteins (HCPs). The experiment in a line: dynamic binding of CHO HCPs, residence time 2 min; summary.
Test [3] concerns the target CHO host cell proteins (HCPs). The experiment in a line: dynamic binding of CHO HCPs, residence time 1 min; summary.
Test [4] concerns the target CHO host cell proteins (HCPs). The experiment in a line: static binding, null CHO-S cell culture fluid; summary for G.1 and G.2 together.
Test [5] deals with CHO host cell proteins (HCPs). The experiment in a line: static binding of CHO HCPs; summary.
In test [6] the target is CHO host cell proteins (HCPs). The experiment in a line: static binding on resin, Langmuir fit; competitive, CHO HCPs with 1 mg/mL NISTmAb; HCP ELISA. For orientation: ELISA stands for enzyme-linked immunosorbent assay.
Test [7] addresses CHO host cell proteins (HCPs). Briefly: static binding on resin, competitive, CHO HCPs with 5 mg/mL NIST mAb.
Test [8] concerns the target NIST mAb. Briefly: static binding on resin, Langmuir isotherm fit; non-competitive, pure NISTmAb solution.
Test [9] has as its target CHO host cell proteins (HCPs). The experiment in a line: static binding on resin, Langmuir isotherm fit; non-competitive, null CHO-S harvest.
The target in test [10] is CHO host cell proteins (HCPs). Briefly: static binding on resin, Langmuir isotherm fit; non-competitive, null CHO-S harvest; average HCP MW of 40 kDa assumed.
Test [11] has as its target CHO host cell proteins (HCPs). Briefly: static binding on resin, Langmuir isotherm fit; non-competitive; average HCP MW of 40 kDa assumed (Table 1 prints 6.50).
The target in test [12] is CHO host cell proteins (HCPs). Briefly: static binding on resin, Langmuir fit; competitive, CHO HCPs with 5 mg/mL NISTmAb; HCP ELISA.
In test [13] the target is CHO host cell proteins (HCPs). The experiment in a line: static binding on resin, competitive, CHO HCPs with 1 mg/mL NIST mAb.
In test [14] the target is CHO host cell proteins (HCPs). Briefly: breakthrough curve, industrial CHO harvest (mAb 1.38 mg/mL, HCP 0.46 mg/mL), residence time 2 min.
Test [15] has as its target CHO host cell proteins (HCPs). The experiment in a line: breakthrough curve, industrial CHO harvest (mAb 1.38 mg/mL, HCP 0.46 mg/mL), residence time 5 min.
The target of test [16] is CHO host cell proteins (HCPs). Briefly: adsorption kinetics on resin (FIG. 8A), null CHO-S harvest; average HCP MW of 40 kDa assumed.
For test [17], the target named is CHO host cell proteins (HCPs). The experiment in a line: static binding on resin, competitive against non-competitive conditions.
In test [18] the target is CHO host cell proteins (HCPs). The experiment in a line: breakthrough curve, industrial CHO harvest (mAb 1.38 mg/mL, HCP 0.46 mg/mL), residence time 0.5 min.
Test [19] deals with CHO host cell proteins (HCPs). Briefly: breakthrough curve, industrial CHO harvest (mAb 1.38 mg/mL, HCP 0.46 mg/mL), residence time 1 min.
In test [20] the target is NIST mAb. Briefly: adsorption kinetics on resin (FIG. 8A), pure NIST mAb in PBS pH 7.4.
The target in test [21] is non-Ig plasma proteins. Briefly: flow-through loading of diluted cryo-rich plasma, two-column process.
In test [22] the target is non-Ig plasma proteins. Briefly: flow-through loading of cryo-poor plasma diluted 10-fold, above 10 CVs.

pKd: −log10 of the molar value.

In [1], LigaGuard™ yielded a DBC10% of 16 to 22 mg/mL. The 10% breakthrough capacity in test [2] is below 22 mg/mL; in test [3] it was below 16 mg/mL. In addition, the Qmax (maximum binding capacity) (mg per mL of resin) in test [4] lay in the range of 28 to 30. Besides, the equilibrium capacity (mg per mL of resin) in test [5] came to 30.
In the case of first generation (G.1) LigaGuard™ resin, the pKd is 5.06 in test [6]; 4.85 in test [8]; 5.19 in test [10]; 5.17 in [11]; 5.06 in test [12]. Also, the Qmax (static binding capacity) in test [6] was determined as 18.8 mg/mL; in [8] it was 11.5 mg/mL; in test [9] it was 21.8 mg/mL; in test [12] it was 15.6 mg/mL. Besides, the Qmax,HCPs in test [7] is 10 mg per mL; in [13] it was 13 mg/mL.
With “second generation (G.2) LigaGuard™ resin”, the pKd in [6] is 5.37; in [8], 4.55; in test [10] it was 5.49; in [12] it was 5.32. For the same substance, the Qmax (static binding capacity) turned out to be 23.1 mg/mL in test [6], 10.5 mg/mL in [8], 24.5 mg/mL in [9] and 22.4 mg/mL in test [12]. Moreover, the DBC10% (dynamic binding capacity at 10% breakthrough) in test [14] came out at 16.2 mg/mL; in test [15], 17.6 mg per mL; in test [18], 14.3 mg/mL; in test [19] it was 16.7 mg/mL. The Qmax,HCPs came out at 16 mg per mL in test [7] and 18 mg per mL in test [13]. In addition, the association rate constant (kon) in [16] worked out at 39000 M⁻¹ s⁻¹; in test [20] it was 8710 M⁻¹ s⁻¹. In [17], this substance showed a decrease of Qmax,HCPs on adding 1 mg/mL mAb of 25%.
In turn, “second-generation LigaGuard™ adsorbent (plasma work, Examples 5 and 6)” came in with a binding capacity (mg per mL of resin) in [21] of 32. The QPP at saturation in test [22] was determined as 30 mg/mL.

A word on the pKd: it is the negative decadic logarithm of the Kd, by convention in mol/L. A lower pKd goes with a large Kd. Usually kon stands for the rate constant with which the complex forms. Higher therefore signals faster complex formation.

These data come from US20250215050A1.
